Among the data in paper PMC7006624 are Kd values, retold here.

In general, Kd refers to the constant that tells how readily two partners part at equilibrium. A higher Kd goes with lower affinity.

Common to all, as to assay: fluorescence polarization
Data set [1] addresses ZF-CLIP (zif268-CLIP-tag fusion) (UniProt P08046). Conditions: amino-C6-T (second T of TTTT loop), 40 mM Tris-HCl, 20 mM acetic acid, 12.5 mM MgCl2, 1 mM DTT, 1 uM ZnCl2, 100 nM calf thymus DNA, 0.02% Tween 20, pH 8.0, 25 C, with or without 200 mM NaCl.
Data set [2] deals with CLIP-G (CLIP-tag-GCN4 bZIP fusion) (UniProt P03069). Conditions: no added NaCl; amino-C6-T (second T of TTTT loop); 40 mM Tris-HCl, 20 mM acetic acid, 12.5 mM MgCl2, 1 mM DTT, 1 uM ZnCl2, 100 nM calf thymus DNA, 0.02% Tween 20, pH 8.0, 25 C, with or without 200 mM NaCl.
Data set [3] concerns AZ-CLIP (AZP4-CLIP-tag fusion) (designed). Conditions: no added NaCl; amino-C6-T (second T of TTTT loop); 40 mM Tris-HCl, 20 mM acetic acid, 12.5 mM MgCl2, 1 mM DTT, 1 uM ZnCl2, 100 nM calf thymus DNA, 0.02% Tween 20, pH 8.0, 25 C, with or without 200 mM NaCl.

Where only a bound is given, the exact number is not on record here.

ZF-CLIP (zif268-CLIP-tag fusion), sequence (P08046 other isoform, or with tags, fused parts or gaps): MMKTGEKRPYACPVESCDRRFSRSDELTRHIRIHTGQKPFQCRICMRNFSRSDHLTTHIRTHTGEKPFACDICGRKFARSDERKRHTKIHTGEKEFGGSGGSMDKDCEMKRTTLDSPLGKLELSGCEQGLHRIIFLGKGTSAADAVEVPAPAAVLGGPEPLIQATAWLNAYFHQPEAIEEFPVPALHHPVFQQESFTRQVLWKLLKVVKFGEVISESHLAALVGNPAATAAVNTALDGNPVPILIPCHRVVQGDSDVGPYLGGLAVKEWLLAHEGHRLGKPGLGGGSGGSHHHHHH

For the sequence “CGCGACGCCCACGCGCGTTTTCGCGCGTGGGCGTCGC [A488-ODN-ZF]”, the Kd in data set [1] was 56 nM; in data set [1] (no added NaCl), 8.1 nM; in data set [2] it was above 1000 nM; in data set [3], above 1000 nM.

As to “CGCGATGCCACGTAGCGTTTTCGCTACGTGGCATCGC [A488-ODN-AZ]”, the dissociation constant (Kd) in data set [1] (no added NaCl) is above 1000 nM; in data set [2], above 1000 nM; in data set [3], 74 nM.

Turning to “CGTTCATGACTCATGAGTTTTCTCATGAGTCATGAAC [A488-ODN-AP]”, the equilibrium dissociation constant (Kd) in data set [1] (no added NaCl) was above 1000 nM; in data set [2], 5.1 nM.
